{"source": "patent US8076300B2", "about": "“FGF2-binding peptides and uses thereof” (Tecnogen S.p.A., priority 2006, dated 2011)", "origin": "cited, not measured here", "target": "FGF2 (Homo sapiens, UniProt P09038)", "sequence (P09038 143-288)": "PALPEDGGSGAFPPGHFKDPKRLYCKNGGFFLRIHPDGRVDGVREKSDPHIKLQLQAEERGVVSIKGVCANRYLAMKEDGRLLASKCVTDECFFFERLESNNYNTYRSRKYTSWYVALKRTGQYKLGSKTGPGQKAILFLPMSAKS", "conditions": "cited from earlier work", "data": [{"substance": "SAP: classical short-pentraxin serum amyloid P component", "values": [{"measurement": "FGF2 binding", "result": "inefficient FGF2 binders"}]}, {"substance": "CRP: classical short-pentraxin C-reactive protein", "values": [{"measurement": "FGF2 binding", "result": "inefficient FGF2 binders"}]}]}
